This is an account of results in paper PMC11717359, “A new pipeline SPICE identifies novel JUN-IKZF1 composite elements”.

The target in this data set is IKZF1 (Ikaros), recombinant (Homo sapiens, UniProt Q13422 1-519). Nature of the data set: EMSA; 1 ug IKZF1 alone; EMSA per LI-COR kit protocol (829-07910), 100 nM IR700 probe, 4-12% TBE gel in 0.5x TBE; binding buffer, pH and temperature not stated. As to conditions: protein: commercial; chain copies: 2; label: IRDye 700. For orientation: Mobility shift assays separate free from complexed probe on a gel.
Sequence of IKZF1 (Ikaros), recombinant (Q13422 whole entry): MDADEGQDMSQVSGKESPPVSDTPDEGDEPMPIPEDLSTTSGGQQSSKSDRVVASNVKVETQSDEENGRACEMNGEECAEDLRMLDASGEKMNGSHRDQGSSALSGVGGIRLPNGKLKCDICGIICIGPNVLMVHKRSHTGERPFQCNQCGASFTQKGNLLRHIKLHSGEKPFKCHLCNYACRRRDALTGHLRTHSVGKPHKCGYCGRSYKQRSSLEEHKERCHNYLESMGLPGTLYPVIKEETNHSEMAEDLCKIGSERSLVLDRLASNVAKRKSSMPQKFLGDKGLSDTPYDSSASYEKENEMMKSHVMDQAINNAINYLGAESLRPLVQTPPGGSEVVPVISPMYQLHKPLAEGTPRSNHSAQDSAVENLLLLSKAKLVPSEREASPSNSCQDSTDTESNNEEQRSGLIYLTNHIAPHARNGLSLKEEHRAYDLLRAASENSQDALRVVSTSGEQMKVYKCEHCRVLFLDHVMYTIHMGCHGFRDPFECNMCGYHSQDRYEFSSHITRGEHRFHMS

B1: IL10 CNS9 WT probe (dsDNA)
DNA 1: GAGGTTGCAGTTTCGTTGTGAGTCAGGCCTGCTGA
DNA 2: TCAGCAGGCCTGACTCACAACGAAACTGCAACCTC
With B1, the binding result is reported as “no binding”.
